Laboratory results taken from patent US12649776B2, “Scaffold proteins and therapeutic nanoconjugates based on nidogen” (UNIVERSITAT AUTÒNOMA DE BARCELONA, priority 2019, dated 2026).

Assays:
[1] = Intrinsic fluorescence (Centre of Spectral Mass) vs temperature, unfolding temperature determination; assay type: physicochemical; conditions: for Stability indexes Tm, Tonset and ΔT from CSM profiles: carbonate and FDA-approved buffers A9, B6, D1
Experimental: Fluorescence spectra were recorded in a Cary Eclipse spectrofluorimeter (Agilent Technologies, Mulgrave, Australia). A quartz cell with 10 mm path length and a thermostated holder was used. The excitation and emission slits were set at 5 nm. Excitation wavelength (λex) was set at 295 nm. Emission spectra were acquired within a range from 310 to 450 nm. The protein concentration was 0.2 mg/mL in carbonate buffer (166 mM NaCO3H, pH 8). In order to evaluate the conformation stability against heating we obtained the fluorescence spectra at each temperature at a 1° C./min scan rate and we calculated the Centre of Spectral Mass (CSM) for each spectrum. CSM is a weighted average of the fluorescence spectrum peak. Also it is related with the relative exposure of the Trp to the protein environment. The maximum red-shift in the CSM of the Trp, is compatible with a large solvent accessibility (Li, T. M.; et al., Biochemistry 1976, 15, 5571-80; Ruan, K and Weber, G, Biochemistry 1989, 28 (5), 2144-53 and Mohana-Borges, R. et al., Proceedings of the National Academy of Sciences of the United States of America 1999, 96 (14), 7888-93) and the protein unfolding.
The Centre of Spectral Mass (CSM) was calculated for each of the fluorescence emission according to Eq.1 (Lakowicz, J. R.; et al., 1991, Biophys Chem 39(1), 79-84), where Ii is the fluorescence intensity measure at the wavelength λi.
Midpoint unfolding temperature (Tm) was determined as the temperature value that correspond to the inflexion point of the CSM vs T° curve. We also determined the Tonset as the temperature where the CSM value begins to increase.

[2] = Volume size distribution of protein nanoparticles and nanoconjugates by Dynamic Light Scattering (DLS); assay type: physicochemical; conditions: for Nanoparticle size after assembly with ZnCl2 (DLS): assembled with ZnCl2 (0.04 mM and further concentrations up to 0.16 mM)
Experimental: Volume size distribution of all protein nanoparticles and nanoconjugates were determined by Dynamic Light Scattering (DLS) at 633 nm in a Zetasizer Nano ZS (Malvern Instruments) in triplicate.
Volume size distribution of protein nanoparticles was determined in a Zetasizer Nano ZS (Malvern Instruments) by Dynamic Light Scattering (DLS) at 633 nm in triplicates.
The integrity of the recombinant proteins was checked by mass spectrometry (MALDI-TOF), TGX (Tris-Glycine eXtended) Stain-Free acrylamide gels electrophoresis (BioRad) and Western Blot analysis using anti-His monoclonal antibody (1:1000; Santa Cruz, ref. 57598). Protein concentration was determined by Bradford (Biorad) assay with an Albumin (Roche) standard curve. GFP fluorescence emission (510 nm) was determined on purified proteins with a Cary Eclipse fluorescence spectrophotometer (Agilent Technologies) using an excitation wavelength of 450 nm. The volume and size distribution of nanoparticles were measured by dynamic light scattering (DLS) at 633 nm through a Zetasizer Nano ZS (Malvern Instruments) using quartz cuvettes.

[3] = Precipitation assay against increasing concentrations of ZnCl2; assay type: physicochemical; conditions: increasing ZnCl2 up to 0.16 mM
Experimental: T22-NIDOmut3-H6, T22-NIDOmut4 T215V-H6 and T22-NIDOmut5-H6 were selected to proceed with the characterization due to their best production yields (24, 26 and 28 mg/L, respectively). At this point, volume-size distribution of each candidate was studied via DLS (FIG. 16). All three candidates were equivalent to the original T22-NIDOmut2-H6 in size before and after assembly into nanoparticles with ZnCl2 (0.04 mM). […] Precisely because Zn is used to mediate this assembly, it was deemed appropriate to perform a precipitation assay against increasing concentrations of ZnCl2, up to 0.16 mM, (FIG. 17A) to test whether the new proteins were resistant to Zn-induced precipitation or not.

[4] = Stability study in buffers: soluble protein loss after dialysis (Bradford, Nanodrop)
Experimental: For the stability study in other buffers, purified protein fractions were dialyzed against chosen FDA-approved buffer and carbonate as control. Protein concentration was initially set at 2.0 mg/ml in carbonate buffer and dialysed into 0.5 ml of each new buffer. Samples were centrifuged for 15 min 15000 g to remove precipitate and the remaining soluble protein concentration was determined by Bradford's assay and Nanodrop.
The stability of resulting proteins was studied in three FDA-approved buffers, and carbonate as control buffer.

[5] = test system: CXCR4+ HeLa cells; test: In vitro cell viability of FdU nanoconjugates (CellTiter-Glo Luminescent Cell Viability Assay); assay type: cell-based, Human; conditions: CXCR4+ HeLa cell line, 25 nM, 48 h
Experimental: HeLa cells (ATCC, CCL-2) were incubated in opaque 96-well plates in 90 μl of MEM alpha medium (Gibco) containing 10% of Fetal bovine serum (Gibco) in humidified atmosphere and 5% CO 2 at 37° C. Then, 10 μl of T22-NIDOmut3-H6-FdU and T22-NIDOmut2-H6-FdU nanoconjugates were added along with the control T22-NIDOmut3-H6 at 25 nM final concentration and incubated for additional 48 h. Cell viability was finally tested by CellTiter-Glo® Luminescent Cell Viability Assay (Promega) in a Victor 3 luminescent plate reader (Perkin Elmer). All samples were analyzed in triplicate and data expressed as mean % of viability (related to control cells)+/− standard error.

B1: STMH6: Isolated hexahistidine-tagged stefin A (protein, UniProt P01040 1-98, looked up)
Cystatin-A: MIPGGLSEAKPATPEIQEIVDKVKPQLEEKTNETYGKLEAVQYKTQVVAGTNYYIKVRAGDNKYMHLKVFKSLPGQNEDLVLTGYQVDKNKDDELTGF
modifications: His6 tag
notes: Isolated hexahistidine-tagged stefin A
- Tm ([1]; *Tm value assuming that the maximal CSM values represent the entirely unfolding state of the protein): ≅76° C.*
- Tonset, 1 ([1]; temperature where the CSM value begins to increase): 70 °C

B2: T22-NIDOmut2-H6: Modular protein: N-terminal T22 CXCR4 ligand, linker, mutated human nidogen-1 G2 domain (NIDOmut2), C-terminal poly-histidine; SEQ ID NO: 61 (protein)
chain: RRWCYRKCYKGYCYRKCRGGSSRSSSPQRVNGKVKGRIFVGSSQVPIVFENTDLASYVVMNHGNSYTAISTIPETVGYSLLPLAPVGGIIGWMFAVEQDGFKNGFSITGGEFTRQAEVTFVGHPGNLVIKQRFSGIDEHGHLTIDTELEGRVPQIPFGSSVHIEPYTELYHYSTSVITSSSTREYTVTEPERDGASPSRIYTYQWRQTITFQECVHDDSRPALPSTQQLSVDSVSVLYNQEEKILAYALSNSIGPVREGSPDAKHHHHHH
- Nanoparticle size (volume size distribution, DLS) ([2]; self-assembled material in storage (carbonate) buffer): ~12 nm
- Loss of the initial soluble protein by Zn-induced precipitation [3]: up to 66%
- % Precipitation (Bradford) ([4]; buffer A9): 12.7%
- % Precipitation (Nanodrop) ([4]; buffer A9): 29.0%
- % Precipitation (Bradford) ([4]; buffer B6): None
- % Precipitation (Nanodrop) ([4]; buffer B6): None
- % Precipitation (Bradford) ([4]; buffer Carbonate): 17.6%
- % Precipitation (Nanodrop) ([4]; buffer Carbonate): 23.9%
- % Precipitation (Bradford) ([4]; buffer D1): 84.1%
- % Precipitation (Nanodrop) ([4]; buffer D1): 86.5%

B3: T22-NIDOmut3-H6: T22-linker-NIDOmut3-H6 fusion protein, SEQ ID NO: 106 (protein)
chain: RRWCYRKCYKGYCYRKCRGGSSRSSSPQRVNGKVKGRIFVGSSQVPIVFENTDLASYVVMNHGNSYTAISTIPETVGYSLLPLAPVGGIIGWMFAVEQDGFKNGFSITGGEFTRQAEVTFVGHPGNLVIKQRFSGIDEKGNLTIDTELEGRVPQIPFGSSVHIEPYTELYHYSTSVITSSSTREYTVTEPERDGASPSRIYTYQWRQTITFQECVHDDSRPALPSTQQLSVDSVSVLYNQEEKILAYALSNSIGPVREGSPDAKHHHHHH
modifications: T22-NIDOmut3-H6
- Nanoparticle size after assembly with ZnCl2 (DLS) [2]: 17 nm
- Stability indexes Tm, Tonset and ΔT from CSM profiles [1]: shows the highest values
- % Precipitation (Bradford) ([4]; buffer A9): 10.25%
- % Precipitation (Nanodrop) ([4]; buffer A9): 15.4%
- % Precipitation (Bradford) ([4]; buffer B6): 5.4%
- % Precipitation (Nanodrop) ([4]; buffer B6): None
- Solubility after dialysis ([4]; buffer B6): remained highly soluble
- % Precipitation (Bradford) ([4]; buffer Carbonate): 17.6%
- % Precipitation (Nanodrop) ([4]; buffer Carbonate): 24.5%
- % Precipitation (Bradford) ([4]; buffer D1): 83.6%
- % Precipitation (Nanodrop) ([4]; buffer D1): 84.3%
- Cytotoxicity [5]: did not cause any cytoxicity

B4: T22-NIDOmut5-H6: T22 fusion protein, SEQ ID NO: 113 (protein)
chain: RRWCYRKCYKGYCYRKCRGGSSRSSSPQRVNGKVKGRIFVGSSQTPIVFENTDLASYVVMNHGNSYTAISTIPETVGYSLLPLAPVGGIIGWMFAVEQDGFKNGFSITGGEFTRQAEVTFQGHPGNLVIKQRFSGIDEKGNLTIDTELEGRVPQIPEGSSVHIEPYTELYHYSTSVITSSSTREYTVTEPERDGASPSRIYTYQWRQTITFQESTHDDSRPALPSTQQLSVDSVSVLYNQEEKILAYALSNSIGPVREGSPDAKHHHHHH
modifications: T22-NIDOmut5-H6
- Nanoparticle size after assembly with ZnCl2 (DLS) [2]: nanoparticles of higher size
- Stability indexes Tm, Tonset and ΔT from CSM profiles [1]: Second protein with better stability indexes
- % Precipitation (Bradford) ([4]; buffer A9): None
- % Precipitation (Nanodrop) ([4]; buffer A9): None
- Solubility after dialysis ([4]; buffer A9): best suited
- % Precipitation (Bradford) ([4]; buffer B6): 15.4%
- % Precipitation (Nanodrop) ([4]; buffer B6): 26.6%
- % Precipitation (Bradford) ([4]; buffer Carbonate): 60.4%
- % Precipitation (Nanodrop) ([4]; buffer Carbonate): 24.2%
- % Precipitation (Bradford) ([4]; buffer D1): 50.1%
- % Precipitation (Nanodrop) ([4]; buffer D1): 62.4%
